How the values were obtained:
[1] = target: T1, SARS coronavirus non-structural protein 15 (Nsp15), wild-type, His-tagged (SARS coronavirus (SARS-CoV)), P0C6X7; test: SEC; settings: remark: other sources report otherwise
T1 chain: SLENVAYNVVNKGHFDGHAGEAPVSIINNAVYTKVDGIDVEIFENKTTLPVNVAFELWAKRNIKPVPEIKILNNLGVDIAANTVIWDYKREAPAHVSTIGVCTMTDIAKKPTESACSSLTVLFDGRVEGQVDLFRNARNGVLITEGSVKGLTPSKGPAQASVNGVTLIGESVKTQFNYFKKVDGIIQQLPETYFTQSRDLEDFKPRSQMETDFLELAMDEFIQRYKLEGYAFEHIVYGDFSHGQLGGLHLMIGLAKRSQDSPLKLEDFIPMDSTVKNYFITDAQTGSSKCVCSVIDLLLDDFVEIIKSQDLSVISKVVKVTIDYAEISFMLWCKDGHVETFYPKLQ

[2] = target: T1, SARS coronavirus non-structural protein …; test: AUC; settings: remark: other sources report otherwise

B1: SARS coronavirus non-structural protein 15 (Nsp15), wild-type, His-tagged, P0C6X7 (enzyme)
chain: T1 chain
[1]
  percent of total protein hexameric: 90%
  stoichiometry N: 6
[2]
  stoichiometry N: 6

Source: paper PMC7094243
